This note sets out measurements from paper PMC4673130.

The experiment concerns the target T1, HA-tetherin (wild type), Q10589.
T1 chain: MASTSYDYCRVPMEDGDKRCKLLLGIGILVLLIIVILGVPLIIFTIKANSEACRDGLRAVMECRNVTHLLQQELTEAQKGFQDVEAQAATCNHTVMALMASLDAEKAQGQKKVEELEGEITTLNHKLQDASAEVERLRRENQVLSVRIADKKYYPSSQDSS
Kind of experiment: non-reducing SDS-PAGE and immunoblot; lysates of HEK293 cells transfected with HA-tetherin with or without SHBs plasmids; SDS-PAGE in the absence or presence of 2-mercaptoethanol, blot with anti-HA; dimer and monomer bands. The conditions noted are these: remark: other sources report otherwise.

B1: HA-tetherin (wild type), Q10589 1-161 (natural protein)
chain: T1 chain
On to B1, for which the stoichiometry N was 2.
